Experimental findings from paper PMC12318175 are described below.

For series [1], the target named is T1, GST-OGG1 (mouse, UniProt O08760 1-345). The series can be described thus: EMSA. (Mobility shift assays separate free from complexed probe on a gel.)
The target of series [2] is T1, GST-OGG1. The series can be described thus: EMSA. The source holds these as a separate data set.

Read-outs that look alike come from different tables or passages of the source.

T1 sequence (O08760 whole entry): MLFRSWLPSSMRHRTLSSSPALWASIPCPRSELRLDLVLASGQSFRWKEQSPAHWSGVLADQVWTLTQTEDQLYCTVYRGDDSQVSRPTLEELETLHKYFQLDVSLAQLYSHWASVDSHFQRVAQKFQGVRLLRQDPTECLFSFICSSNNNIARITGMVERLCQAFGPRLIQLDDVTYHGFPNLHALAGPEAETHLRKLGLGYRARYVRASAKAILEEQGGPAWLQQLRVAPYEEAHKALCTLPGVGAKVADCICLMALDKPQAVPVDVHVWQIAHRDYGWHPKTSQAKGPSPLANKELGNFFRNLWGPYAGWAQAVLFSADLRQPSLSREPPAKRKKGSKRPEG

B1: Cy5-5mC8-oxoG/GC (Foxp3 CNS2) (dsDNA)
DNA 1: GCCGATGAAGCCCAATGCATCCGGCCGCCATGACGTCA
DNA 2: TGACGTCATGGCGGCCGGATGCATTGGGCTTCATCGGC
modifications: 5mC at sense C22; 8-oxoG at sense G23
Take B1: the binding result with GST-OGG1 [1] is recorded as “binds”.

B2: Cy5-WT (Foxp3 pro) (dsDNA)
DNA 1: AAGTGTGGGTATGGGAGCCAGACTGTCTGGAACAACCTA
DNA 2: TAGGTTGTTCCAGACAGTCTCGCTCCCATACCCACACTT
B2: in the series with GST-OGG1 [2], the binding result is reported as “no binding”.
